Source: US20250262292A1

What was measured:
native host protein [1] = assay: method not stated
native host protein [2] = assay: method not stated; reference is wild type PmSLP-1 (SEQ.ID NO: 2)

Row | Substance | Kd (native host protein [1]) [nM] | factor by which Kd exceeds that of the native non-modified PmSLP (native host protein [2]) [fold]
1 | modified PmSLP-1 with E240A mutation (SEQ.ID NO: 67) | < 2000 | > 500
2 | modified PmSLP-1 with V214D mutation (SEQ.ID NO: 65) | < 2000 | > 500
3 | wild type PmSLP-1 protein of P. multocida (SEQ.ID NO: 2) | 30 | –
